Among the data in US20230250158A1 are Kd values, retold here.

The target in assay [1] is SARS-CoV-2 Spike S2-hFc (SARS-CoV-2), P0DTC2. The assay is described as follows: Octet, Fab as analyte over S2-hFc on AHC sensor. The settings on record: remark: other sources report otherwise. (Biolayer interferometry detects binding as a change in optical thickness at a sensor tip.)
For assay [2] the target is unchanged. Kind of assay: Octet BLI; Fab as analyte over S2-hFc on AHC sensors; steady-state analysis. The settings on record: remark: other sources report otherwise.

B1: 2-A6 Fab (Fab, V domains shown)
VH: QVTLRESGPALVKPTQTLTLTCTFSGFSLNTRGMSVSWIRQPPGKALEWLALIDWEDDKFYRTSLMTRLTISKDIFKNQVVLTMTNVDPVDTGTYYCARTYSVGVKYFGMDVWGQGTTVTVSS
VL: SSELTQDPAVSVALGQTVRITCQGDSLRNYYASWYRQEPGQAPILLIYGGNYRPSGIPDRFSGSSSGNTASLTITGAQAEDEADYYCNSRDSSGNHVVFGGGTKLTVL
On to B1, for which the values for the Kd in assay [1] and in assay [2] were 900 nM and 913 nM, respectively.

Broadly, the Kd is a measure of binding affinity in units of concentration. A higher Kd goes with weaker binding.
